Measured values reported in US20130210108.

B1: PA3529 protein (2-Cys peroxiredoxin of Pseudomonas aeruginosa PAO1), His-tagged, non-irradiated or gamma/UV-irradiated (protein)
chain: MSVLVGKKAPDFNVAAVLGNGEIVESFTLSEAIKGKYGLVFFYPLDFTFVCPSELIALDHRIPEFQARNVEVIGVSIDSHFTHNAWRNTPVDKGGIGAVKYTLAADTKHEIAKAYDVESDGGVAFRGAFLIDKEGVVRSQIVNDLPLGRNMDELLRLVDALQFHEEHGEVCPANWKKGDKGMTASPEGVAKYLAENASKL
B2: PP1084 protein (3-Cys peroxiredoxin of Pseudomonas putida KT2440), His-tagged, non-irradiated or gamma-irradiated (protein)
chain: MSVLVGKKAPDFTVPAVLGNGEIVDSFNLASAIKGKYGLVFFYPLDFTFVCPSELIALDNRIPDFQARNVEVIGVSIDSHFTHNAWRNTPVNNGGIGQVKYTLAADMTHEICKAYDVESEGGVAFRGAFLIDTNGVVRSQIVNDLPLGRNMDELLRLVDALQFHEEHGEVCPANWKKGDKGMNASPEGVAAYLSENAGKL

Molecular target: malate dehydrogenase (MDH)

Protein	MDH aggregation at 43 C for 15 minutes, PaPrx:MDH 1:1 (molecular chaperone activity after UV irradiation)	chaperone activity against the non-irradiated group	increase rate of OD650nm of MDH heated at 43 C (holdase chaperone activity)
B1	as the UV irradiation time increased, the molecular chaperone activity increased regularly	Chaperone activity of Prx protein was three-fold increased by gamma irradiation at 15˜30 kGy, compared with the non-irradiated group	the lowest OD was observed at 30 kGy, indicating that chaperone activity was highest at 30 kGy
B2		Chaperone activity of Prx protein was three-fold increased by gamma irradiation at 15˜30 kGy, compared with the non-irradiated group	the lowest OD was observed at 30 kGy, indicating that chaperone activity was highest at 30 kGy
